Measured values reported in the nanobody polyreactivity screen of Harvey et al. (2022).

Assay: yeast display, Sf9 membrane polyspecificity reagent, FACS + sequencing; frameworks hold sequencing errors
Summary of the method: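 A synthetic nanobody library was expressed on Saccharomyces cerevisiae BJ5465 by galactose induction for 36–48 hours. The library was stained for 1 hour at 4 °C with 10% biotinylated, detergent-solubilized Sf9 membrane reagent and enriched with streptavidin microbeads before FACS. Low and high (top ~1%) gates were set on anti-HA fluorescence for expression and streptavidin fluorescence for reagent binding, and each polyreactivity label reflects the gate of origin.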

Sequence	polyreactivity (PSR sort gate)
QVQLVESGGGLVQAGGSLRLSCAASGRIFPGNAMGWYRQAPGKESELVAAISKSGGSTYYADSVKGRFTISRDNAKNTVYLQMNSLKPEDTAVYYCAKLYYPVSDQYDYYYWGQGTQVTVSS	low polyreactivity
QVQLVESGGGLVQEGGSLRLSCAASGRTFSRYVMGWYRQAPGKERELVAAIRGSGGGTYYADSVKGRFTISRDNAKNTVYLQMNSLKPEDTAVYYCNVVRSTVLYDYWGQGTQVTVSS	high polyreactivity
QVQLVESGGGLVQAGGSLRLSCAASGFTFRYYAMGWYRQAPGKERELVAAISAGGGSTYYADSVKGRFTISRDNAKNTVYLQMNSLKPEDTAGYYCAAAGARPGYDYWGQGTQVTVSS	high polyreactivity
QVQLVETGGRLVQAGGSLRLSCAASGFTFHQYTMGWYRQAPGKESELVAAITGTGDTYYADSVKGRFTISRDNAKNTVNLQMNSLKPEDTAVYYCAADWVTYWYYKGFYYWGQGTQVTVSS	high polyreactivity
QVQLVESGRGLVQAGGSLRLSSAASGSISLFLTMGWYRQAPGKERELVAAINYTDITKYADSVKGRFTISRDNAKNTVYLQMKSLKPDDTAVYYCARDEGYEYPLGRGGYWGQGTQVTVSS	low polyreactivity
QVQLVESGGGLVQAGGSLRLSCAASGRTFNGYAMGWYRQAPGKERELVASITLRGGSTYYADSVKGRFTISRDNAKNTVYLQMNSLKPEDTAVYYCAVGKFVRYPGRWRYRYDYWGQGTQVTVSS	high polyreactivity
QVQLVESGGGLVQAGGSLRLSCAASGSIFADYAMGWYRQAPGKERELVAVITSGGRTNYADSVKGRFTISRDNAKNTVYLQMNSLKPEDTAVYYCDTRRYRYYAYRNYYYWGQGTQVTVSS	high polyreactivity
QVQLVESGGGLVQAGGSLRLSCAASGRTFTVYAMGWYRQAPGKERELVAAISSGGITYYADSVKGRFTISRDNAKNTVYLQMNSLKPEDTAVYYCNTKSGKARYEFGYWGQGTQVTVSS	low polyreactivity
QVQLVESGGGLVQARGSLRLSCAASGSTFSYYTMGWYRQAPGKERELVATISRRGASTYYADSVKGRFTISRDNAKNTVYLQMHSLKPEDTAVYYCAKSYYYGRSATRPEYDYWGQGTQVTVSS	high polyreactivity
QVQLVESGGGLVQAGGSLRLSCAASGSTFRTYAMGWYRQAPGKVRELVAAITNGGSTYADSVKGRFTISRDNAKNTVYLQMNSLKPEDTAVYYCNADFGFGYVSLLYEYWGQGTQVTVSS	low polyreactivity
QVQRVESGGRLVQAGGSLRLSCAASGRTFWAYAMGWYRQAPGKERELVAAITTSGGSTNYADSVKGRFTISRDNAKNTVYLQMNSLKPEDTAVDYCNADPTYHVVNGVGYWGQGTQVTVSS	low polyreactivity
QVQLVESGGGLVQAGGSLRLSCAASGRTFVYYAMGWYRPAPGKERELVAAISRSGSTYYADSVKGRFTISRDNAKNTVYLQMNSLKPEDTAVYYCARPGGPDRTSSPYPYPYGYWGQGTQVTVSS	low polyreactivity
QVQLVESGGGLVQAGGSLRLICAPSGITFYPYSMGWSRQAPGKERELVAAISGGTNTHYADSVKGRFTISRDNAKNTDYLQMNSLKPVDTAVYYCAAGIDFRRTTSYSFWFDYWGQGTQVTVSS	high polyreactivity
QVQLVESGGGLVQAGGSLRLSCAASGFIFTIYALGWYRQAPGKERELVAAIDSSGTTYYADSVKGRFTISRDNAKNTVYLQMNSLKPEDTAVYYCNTDIYVQYGWGQGTQVTVSS	low polyreactivity
QVQLVESGGGLVQAGGSLRLSCAASGNTFDYYAMGWYRQAPGKERELVAAIDSGTTTYYADSVKGRFTISRDNAKNTVYLQMNSLKPEDTAVYYCAAEYAYVPGWYEYWGQGTQVTVSS	high polyreactivity
QVQLVESGGGLVQAGGSLRLSCAASGFTFYGYAMGWYRQAPGKERELVAGITSGGRTYYADSVKGRFTISRDNAKNTVYLQMNSLKPEDTAVYYCAARRITWGRFDYWGQGTQVTVSS	high polyreactivity
QVQLVESGGGLVQAGGSLRLSCAASGRTFLINSMGWYRQAPGKERELVAGITRNGGTTYYADSVKGRFTISRDNAKNTVYLQMNSLKPEDTAVYYCAKRYPSWFNYWGQGTQVTVSS	high polyreactivity
QVQLVESGGGIVQAGGSLRLSWAASGSIFDKYAMGWYRQAHGKERELVAAIDSGDTYYADSVKGRFTISRDNAKNPVYFQMNSLKPEDTAVYYWAADDVQYEYDYWGQGTQVSVSS	low polyreactivity
QVQLVESGGGVVQAGGSLRLSSAASGRIFQAYAMGWYRQAPGKEWELVAAISRSGGGTYYSDSVKGRFTISRDYAKNTVYLQMNSLKPEDTAVYYCNARGSTARGRGYWGQGTQVTVTS	high polyreactivity
QVQLVESGGGLVQAGGSLRLSCAASGRIFTANAMGWYRQAPGKERELVAAISWRGGSTYYADSVKGRFTISRDNAKNSVYLQLNSLKPEDTAVYYCAAQRYAPYRYEYWGQGTHVTVSS	high polyreactivity
QVQLVESGGGLVQAGGSLRLSCAASGRNFNKNAMGWYRQAPGKERELVAAITDRGGSTNYADSVKGRFTISRDNAKNTVYLQMNSLKPEDTAVYYCNTGRKLVYRYPGYDYWGQGTQVTVSS	low polyreactivity
QVQLGESGGGLVQAGGSLRLSCAASGGIFDIYAMGWYRQAPGKERELVAAIRGSGGRTYYADSVKGRFTISRDNAKNSLYLQMNSLKPEDTAVYYCAARPSIVTGLRYGYWGQGTQVTVSS	high polyreactivity

Sequence	polyreactivity (PSR sort gate)
QVQLVESGGGLVQAGGSLRLSCAASGSNFGDNPMGWYRQAPGKERELVAAISSSGDSTYYADSVKGRFTISRDNAKNTVYLQMNSLKPEDTAVYYCADDRGSTAGSVTYTPGNYWGQGTQVTVSS	low polyreactivity
QVQLVESGGGLVQAGGSLRLSCAASGYIFRQNAMGWYRQAPGKERELVAAITWSGGSTYYADSVKGRFTISRDNAKNTVYLQMNSLKPEDTAVYYCNAYSYVAIRDGGDYWGQGTQVTVSS	low polyreactivity
QVQLVESGGGLVQAGGSLRISFAASGFFFARYAMGWYRQEPGKERELVAAISGSGARTYYADSVKGRFTNSRDNAKNTVYLQMNSLKPEDTAVYYCAVRGSWYSEHNYWGQGTQVTVSS	high polyreactivity
QVQLVESGGGLVQAGGSLRLSCAASGSIFFYYTMGWYRQAPGKEREMVAAISVGGSTYYADSVKGRFTISSDNAKNTVYLQMKSLKPEDTAVYYCNAVPAKGYVTVVRYYYWGLGTQVTVSS	low polyreactivity
QVQLVESGGGIVQAGGSLRLSCAASGFIFQRYVMGWYRQEPGKERQLVAAISSGGSTNYADSVKGRFTISRDNAKNTVYLQMNSLKAEDTAVYYFAADGFYYRNWGRFRYYYWGLGTQVTVSS	low polyreactivity
QVQLVESGGGLVQAGGSLRLSCAASGRTFGWYAMGWYRQAPGKERELVATITRGGSTYYADSVKGRFTISRDNAKNTVYLQMNSLKPEDTAVYYCNARRYLWLRRYDYWGQGTQVTVSS	high polyreactivity
QVQLVESGGGLVQAGGSLRLSCAASGSTFAKYVMGWYRQAPGKERELVAAISRRGSSTYYADSVKGRFTISRDNAKNTVYLQMNSLKPEDTAVYYCAARFRYSGFEGMDYWGQGTQVTVSS	high polyreactivity
QVQLVESGGGLVQAGGSLRLSCAASGSIYTYYAMGWYRQAPGKERELVAAINSGGRTNYADSVKGRFTISRDNAKNTVYLQMNSLKPEDTAVYYCAADGSVSYYTYYYWGQGTQVTVSS	low polyreactivity
QDQLVESGGGLVQAGGSLRLICAASGRTFGSYTMGWYRQAPGKERELVAAITSGGRTNYADSVKGRFTISRDNAKNTVYLQMNSLKPEDTAVYYCAAGWRGGRYRYFAYDYWGQGTQVTVSS	high polyreactivity
QVQLVESGGGLVQAGGSLRLSCAASGRTFNKYAMGWYRQAPGKERELVAAITGSGGSTYYADSVKGRFTISRDNAKNTVYLEMNSLKPEDTAVYYCAAYAYGVWHSQDGGNYWGQGTQVTVSS	low polyreactivity
QVQLVDSGGGLVQAGGSLRLSCAASGFIFGINAMGWYRQAPGKERELVSAISTGDRTNYADSVKRRFTISRDNAKNTVYLQMYSLKPEDTAVYYFAKDWRRNRPYEWTYDYWGQGTQVTVSS	low polyreactivity
QVQLVESGGGLVQAGGSLRLSCAASGRNFPVNAMGWYRQAPGKERELVATISYSGSSTYYADSVKARFTISRDNAKNTVYLQMNSLKPEDTAVYYCNADAESFDDGYWGQGTEVTVSS	low polyreactivity
QVQLVESGGGLVQAGGSLRLSCAASGFTFYPNAMGWYRQAPGNERELVATITGSGGSTNYADSVKGRFTISRDTAKNTVYLHMNRLKPEDTAVYYCAADYAVYSFTEFNYWGQVTQVTVSS	high polyreactivity
QVQLVESGGGLVQAGGSLRLSCAASGRTFLTYVMGRYRQAPGKERELVAAITRGGRTNYADSVKGRFTISRDNAKNTVYLQMNSLKPEDTAVYYCARDDTPRYDYWGQGTQVTVSS	low polyreactivity
QVQLVESGGGLVQAGGSLRLSCAASGSTFSVNPMGWYRQARVKERELVAAIDSGDSTYYADSVKGRFTISRDNAKNTVYLQMNSLKPEDTAVYYCATDVTFVYDLGYFQYDYWGQGTQVTVSS	low polyreactivity
QVQLVESGGGLVQEGGSLRLSCAASGTFYRYAMGWYRQAPGKERELVAAISRSGGSTYYADSVKGRFTISRDNAKNTVYLQMNSLKPEDTAVYYCAAYSRSFYLASLYDYWGQGTQVTVSS	high polyreactivity
QVQLVESGGGLVQAGGSLRLSCAASGFTFRAYAMGWYRQAPGKERELVAAISWGGGSTYYADSVKGRFTISRDNAKNTVYLQMNSLKPEDTAVYYCATERRRYNTEYEYWGQGTQVTVSS	high polyreactivity
QVQLVESGGGLVQAGGSLRLSCAAPGNTFQYYAMGWSRQAPGKEREFVAAISRRGGSTYYADSVKGRFTISRDNAKNTVYLQMNSLKPEDTAVYYCNKVIFLSQSSYSFLYAYDYWGQGTQVTVSS	high polyreactivity
QVQLVESGRGLVQAGVSLRLSCAASGSIFDPNAMGWYRQAPGKERELVAAITSGGGSTYYADSVKGRFTISRDNAKNTVYLQMNSLKPEDTAVYYCNKVFVLQYKFVAWFDYWGQGTQVTVSS	low polyreactivity
QVQLVESGGGLVQAGGSLRLSCAASGLTLYGYTMGWYRQAPGKERELVATITTGGDSTYYADSVKGRFTISRDNAKNTVYLQMNSLKPEDTAVYYCAAYSYGWDYSYDYWGQGTQVTVSS	low polyreactivity
QVQLGESCGGLVQAGGSLRLSCAASGPIFRSYAMGWYRQAPGKERELVARITSGGSTNYADSVKGRFTISRDNAKNTVYLQMNSLKPEDSAVYYCARDWGKSEYDYWGQGTQVTVSS	high polyreactivity
